In this test the target is T1, Myoglobin from Horse Heart (Sigma M-9267) (horse), P68082.
T1 chain: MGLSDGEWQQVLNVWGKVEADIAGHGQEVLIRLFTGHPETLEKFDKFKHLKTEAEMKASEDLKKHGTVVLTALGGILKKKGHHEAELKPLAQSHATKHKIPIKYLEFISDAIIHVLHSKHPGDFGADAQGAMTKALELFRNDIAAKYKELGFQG
Put plainly: SDS-PAGE of the methanol precipitate. To be noted: remark: other sources report otherwise.

B1: Myoglobin from Horse Heart (Sigma M-9267), P68082 1-154 (natural protein)
chain: MGLSDGEWQQVLNVWGKVEADIAGHGQEVLIRLFTGHPETLEKFDKFKHLKTEAEMKASEDLKKHGTVVLTALGGILKKKGHHEAELKPLAQSHATKHKIPIKYLEFISDAIIHVLHSKHPGDFGADAQGAMTKALELFRNDIAAKYKELGFQG
The stoichiometry N is the number of molecules, sites or subunits per partner or assembly. The molecule B1 registered a stoichiometry N of 3.
